We go through nine variants from PMC8766471, “Mutations affecting the N-terminal domains of SHANK3 point to different pathomechanisms in neurodevelopmental disorders” (Scientific Reports, 2022).

B1: Shank3 N-terminus (SPN + Ank domains, residues 1-339), WT, mRFP-tagged [rat] / δ-catenin, GFP-tagged [mouse] (parent complex)
chain 1: MDGPGASAVVVRVGIPDLQQTKCLRLDPTAPVWAAKQRVLCALNHSLQDALNYGLFQPPSRGRAGKFLDEERLLQDYPPNLDTPLPYLEFRYKRRVYAQNLIDDKQFAKLHTKANLKKFMDYVQLHSTDKVARLLDKGLDPNFHDPDSGECPLSLAAQLDNATDLLKVLRNGGAHLDFRTRDGLTAVHCATRQRNAGALTTLLDLGASPDYKDSRGLTPLYHSALGGGDALCCELLLHDHAQLGTTDENGWQEIHQACRFGHVQHLEHLLFYGANMGAQNASGNTALHICALYNQESCARVLLFRGANKDVRNYNSQTAFQVAIIAGNFELAEVIKTHK
chain 2: MFARKQSGAAPFGAMPVPDQPPSASEKNSSLSPGLNTSNGDGSETETTSAILASVKEQELQFERLTRELEAERQIVASQLERCKLGSETGSMSSISSAGEQFHWQTQDGQKDIEDELTTGLELVDSCIRSLQESGILDPQDYSTSERPSLLSQSALQLNSKPEGSFQYPASYHSNQTLALGDTAPSQLPARSTQARAAGQSFSQGTTGRAGHLAGSEPAPPPPPPREPFAPSLGSAFHLPDAPPAAAALYYSSSTLPAPPRGGSPLTTTQGGSPTKLQRGGSAPEGAAYAAPRGSSPKQSPSRLAKSYSTSSPINIVVSSAGLSPIRVTSPPTVQSTISSSPIHQLSSTIGTYATLSPTKRLVHASEQYSKHSQELYATATLQRPGSLAAGSRASYSSQHGHLAPELRALQSPEHHIDPIYEDRVYQKPPMRSLSQSQGDPLPPAHTGTFRTSTAPSSPGVDSVPLQRTGSQHGPQNAAAATFQRASYAAGPASNYADPYRQLQYCASVDSPYSKSGPALPPEGTLARSPSIDSIQKDPREFGWRDPELPEVIQMLQHQFPSVQSNAAAYLQHLCFGDNKIKAEIRRQGGIQLLVDLLDHRMTEVHRSACGALRNLVYGKANDDNKIALKNCGGIPALVRLLRKTTDLEIRELVTGVLWNLSSCDALKMPIIQDALAVLTNAVIIPHSGWENSPLQDDRKIQLHSSQVLRNATGCLRNVSSAGEEARRRMRECDGLTDALLYVIQSALGSSEIDSKTVENCVCILRNLSYRLAAETSQGQHMGTDELDGLLCGETNGKDTESSGCWGKKKKKKKSQDQWDGVGPLPDCAEPPKGIQMLWHPSIVKPYLTLLSECSNPDTLEGAAGALQNLAAGSWKGWAEDVAGMAYALRSLPEGAPCLPQWSVYIRAAVRKEKGLPILVELLRIDNDRVVCAVATALRNMALDVRNKELIGKYAMRDLVHRLPGGNNSNNSGSKAMSDDTVTAVCCTLHEVITKNMENAKALRDAGGIEKLVGISKSKGDKHSPKVVKAASQVLNSMWQYRDLRSLYKKDGWSQYHFVASSSTIERDRQRPYSSSRTPSISPVRVSPNNRSASAPASPREMISLKERKTDYESAGNNATYHGTKGEHTSRKDTMTAQNTGVSTLYRNSYGAPAEDIKQNQVSTQPVPQEPSRKDYETYQPFPNSTRNYDESFFEDQVHHRPPASEYTMHLGLKSTGNYVDFYSAARPYSELNYETSHYPASPDSWV

In this assay the parent is B1. Put plainly: co-immunoprecipitation (mRFP-trap) with Western blot quantification; coexpressed in 293 T cells; three independent experiments; read off a plot.
Consider chain 1 Q106P, for which the response was ~0.07.

Consider chain 1 Y272C, for which the response is ~0.068.

chain 1 D69G: the response was ~0.13.

As for chain 1 L270M, the response is ~0.066.

Consider chain 1 G250C, for which the response is ~0.05.

Turning to chain 1 Q256H, the response is ~0.05.

Take chain 1 P141A: the response is ~0.022.

Consider chain 1 T337S, for which the response is ~0.092.

As to chain 1 Q317R, the response was ~0.14.
